Ends that are not written are not given here.
B1: TNKS2 ARC5 (domain or fragment)
chain: GAMGSDLLRGDAALLDAAKKGCLARVKKLSSPDNVNCRDTQGRHSTPLHLAAGYNNLEVAEYLLQHGADVNAQDKGGLIPLHNAASYGHVDVAALLIKYNACVNATDKWAFTPLHEAAQKGRTQLCALLLAHGADPTLKNQEGQTPLDLVSADDVSALLTAAMPP

Experiments:
MERIT40 (two peptides) [1] = target: T1, MERIT40 (two peptides) (fluorescein or 5(6)-carboxyfluorescein fluorophore; the fluorescein is linked via β-Ala); assay: FP; MERIT40 I peptide (…)
MERIT40 (two peptides) [2] = target: T1, MERIT40 (two peptides); assay: FP; MERIT40 II peptide (…)
TNKS2 ARC5 = target: B1; assay: FP

B1
Kd (MERIT40 (two peptides) [1]): 530 nM | Kd (MERIT40 (two peptides) [2]): 3000 nM

B2: 3BP2 TBM peptide (WT positive control) (peptide)
chain: LPHLQRSPPDGQSFRS
modifications: also: fluorescein or 5(6)-carboxyfluorescein linked via β-Ala, site not given here
Kd (TNKS2 ARC5): 390 nM

Source: PMC6082341 (2017)
